Source: patent US20090280543A1, “REGIOSELECTIVE GLYCOSYLATION” (THE UNIVERSITY OF YORK, priority 2005, published 2009)

Legend:
[1] = D-glucose adsorption by PVPP, HPAEC of samples treated with and without PVPP; type: physicochemical
Description: FIG. 8: Lack of D-glucose adsorption by PVPP.
High Performance Anion Exchange Chromatography (HPAEC): HPAEC coupled with integrated amperometric detection (IAD) (Dionex, U.K.) was used to detect D-glucose using a CarboPac™ PA10 column (2×250 mm, Dionex). Seven different monosaccharides including L-Fucose, L-rhamnose, D-galactose, L-arabinose, D-glucose, D-manose and D-xylose were used as references. The D-glucose was separated isocratically at a flow rate 0.35 mL/min with 24 mM NaOH (pH>12.5) over 18 min. The column was then washed with a linear gradient of NaOH from 24 mM to 200 mM over 5 min. The IAD waveform was set following manufacturer's recommendation.
Stage 3, detection: 50 μl of the reaction mix were transferred to a 96-well filtration plate (Abgene, U.K.), mixed with an equal volume of PVPP aqueous suspension (25 g/L), shaken for 1 h at 25° C. before centrifugation (1000 g, 5 min). To each filtrate, 50 mM 2-morpholino-ethanesulfonic acid buffer (MES) (pH 7.0), ABTS™ (0.1 mM), peroxidase (2 U) and glucose oxidase (2 U) were added to a final volume of 125 μl. The formation of the green dye was monitored at 405 nm at 30 min using a plate reader (Bio-Tec Instruments Inc., U.S.A).

[2] = test system: E. coli transformed with pGEX-2T vector; assay: Hydrolysis of esculin in bacterial culture, RP-HPLC; settings: 44 h at 25° C.
Description: (§1) FIG. 5: Investigation of ecsulin hydrolysis. Neither a) autohydrolysis in MES buffer nor b) hydrolysis in bacterial culture of esculin (12) was detected. Samples at 24 h, 44 h incubation and additionally a standard of the aglycone esculetin (11) are illustrated;
(§2) For these controls, samples were incubated for 44 h at 25° C. as in the standard experimental conditions, and analyzed by RP-HPLC to confirm the lack of aglycone (esculetin, 11) (FIG. S1).

[3] = Autohydrolysis of esculin in MES buffer, RP-HPLC; type: physicochemical; settings: 50 mM MES buffer (pH 7.0), 44 h at 25° C.
Description: as §1, §2

[4] = Whole-cell biocatalysis screen of GT library against the aglycone daidzein (RP-HPLC of glucosides); type: cell-based, E. coli; settings: for regioselectivity for the 7-OH of daidzein: percentage of a regiospecific glucoside in the total amount of monoglucosides formed
Description: FIG. 3: Screening of a GT-library against the aglycone daidzein. a) The readings at A405 nm for D-glucose detection are presented in a colored code format. b) Examples of RP-HPLC trace of active and non-active GTs in whole-cell biocatalysis are illustrated. c) The regioselectivity of the active GTs towards daidzein, defined by the percentage of a regiospecific glucoside in the total amount of monoglucosides formed;
Reverse-phase HPLC (RP-HPLC): RP-HPLC (Agilent 1100 system with Photodiode Array Detector, Agilent, U.K.) analysis was carried out using a Columbus 5-μ C18 column (150×3.20 mm, Phenomenex, U.K.). Glucosides were separated from their respective aglycones using a linear gradient of acetonitrile/0.1% formic acid (v/v) in H2O: 10-45% (trans-resveratrol/glucosides), 10-50% (daidzein/glucosides) at 0.5 mL/min over 20 min and monitored at 280 nm and 250 nm. Separation of scopoletin/scopolin and esculetin/esculin was carried out using the conditions described previously.^[11]
The cDNA library of 96 Arabidopsis thaliana GTs was subcloned into the multiple cloning site of the glutathione-S-transferase (GST) gene fusion vector pGEX-2T (Amersham Biosciences, U.K.) as described previously^[10] and transformed into the strain E. coli BL21 (DE3) for use in the screening method.
Stage 1, biotransformation: single colonies of the GT library grown on LB-agar plates overnight were transferred to individual wells in a 96-well bacterial culture plate containing 400 μl 2×YT medium (16 g/L bacto tryptone, 10 g/L yeast extract, 5 g/L NaCl) and 50 μg/mL ampicillin. The plate was covered with an adhesive plate seal (Abgene, U.K.) and incubated at 37° C. (250 rpm). The bacterial growth was monitored at 595 nm by a plate reader. After 4 h, the cultures had reached exponential phase. The plate was centrifuged (4000 g, 10 min), the supernatants discarded and cell pellets were resuspended in isopropyl-D-thiogalactopyranoside (0.1 mM), 2-(N-morpholino)ethanesulfonic acid (50 mM, pH 7.0), ampicillin (50 μg/mL), L-arabinose (10 g/L) and 500 µM of aglycone to a total whole-cell reaction volume of 400 μl/well. The 96-well plate was closed with a gas permeable adhesive plate seal, wrapped in alu foil for light protection and incubated at 25° C. (250 rpm). After 44 h the cultures were centrifuged (4000 g, 15 min) and the supernatants analyzed. […]
Stage 3, detection: 50 μl of the reaction mix were transferred to a 96-well filtration plate (Abgene, U.K.), mixed with an equal volume of PVPP aqueous suspension (25 g/L), shaken for 1 h at 25° C. before centrifugation (1000 g, 5 min). […] The formation of the green dye was monitored at 405 nm at 30 min using a plate reader (Bio-Tec Instruments Inc., U.S.A). […]

Molecule: O=C[C@H](O)[C@@H](O)[C@H](O)[C@H](O)CO [D-glucose]
- loss of D-glucose by filtration through PVPP [1]: no significant loss

Molecule: O=c1ccc2cc(O[C@@H]3O[C@H](CO)[C@@H](O)[C@H](O)[C@H]3O)c(O)cc2o1 [esculin, esculetin-6-O-glucoside]
- hydrolysis in the presence of the bacterial culture [2]: not hydrolyzed
- autohydrolysis during incubation [3]: lack of autohydrolysis

B1: GT 84A1: Arabidopsis thaliana glycosyltransferase, SEQ ID NO: 81 (nucleotide), 130 (amino acid) (protein, listed as Arabidopsis thaliana)
chain: MVFETCPSPNPIHVMLVSFQGQGHVNPLLRLGKLIASKGLLVTFVTTELWGKKMRQANKIVDGELKPVGSGSIRFEFFDEEWAEDDDRRADFSLYIAHLESVGIREVSKLVRRYEEANEPVSCLINNPFIPWVCHVAEEFNIPCAVLWVQSCACFSAYYHYQDGSVSFPTETEPELDVKLPCVPVLKNDEIPSFLHPSSRFTGFRQAILGQFKNLSKSFCVLIDSFDSLEQEVIDYMSSLCPVKTVGPLFKVARTVTSDVSGDICKSTDKCLEWLDSRPKSSVVYISFGTVAYLKQEQIEEIAHGVLKSGLSFLWVIRPPPHDLKVETHVLPQELKESSAKGKGMIVDWCPQEQVLSHPSVACFVTHCGWNSTMESLSSGVPVVCCPQWGDQVTDAVYLIDVFKTGVRLGRGATEERVVPREEVAEKLLEATVGEKAEELRKNALKWKAEAEAAVAPGGSSDKNFREFVEKLGAGVTKTKDNGY
- regioselectivity for the 7-OH of daidzein [4]: 100%

B2: GT 73B1: Arabidopsis thaliana glycosyltransferase, SEQ ID NO: 22 (nucleotide), 114 (amino acid) (protein, listed as Arabidopsis thaliana)
chain: MGTPVEVSKLHFLLFPFMAHGHMIPTLDMAKLFATKGAKSTILTTPLNAKLFFEKPIKSFNQDNPGLEDITIQILNFPCTELGLPDGCENTDFIFSTPDLNVGDLSQKFLLAMKYFEEPLEELLVTMRPDCLVGNMFFPWSTKVAEKFGVPRLVFHGTGYFSLCASHCIRLPKNVATSSEPFVIPDLPGDILITEEQVMETEEESVMGRFMKAIRDSERDSFGVLVNSFYELEQAYSDYFKSFVAKRAWHIGPLSLGNRKFEEKAERGKKASIDEHECLKWLDSKKCDSVIYMAFGTMSSFKNEQLIEIAAGLDMSGHDFVWVVNRKGSQEEKEDWLPEGFEEKTKGKGLIIRGWAPQVLILEHKAIGGFLTHCGWNSLLEGVAAGLPMVTWPVGAEQFYNEKLVTQVLKTGVSVGVKKMMQVVGDFISREKVEGAVREVMVGEERRKRAKELAEMAKNAVKEGGSSDLEVDRLMEELTLVKLQKEKV
- regioselectivity for the 7-OH of daidzein [4]: 100%

B3: GT 73B2: Arabidopsis thaliana glycosyltransferase, SEQ ID NO: 23 (nucleotide), 115 (amino acid) (protein, listed as Arabidopsis thaliana)
chain: MGSDHHHRKLHVMFFPFMAYGHMIPTLDMAKLFSSRGAKSTILTTSLNSKILQKPIDTFKNLNPGLEIDIQIFNFPCVELGLPEGCENVDFFTSNNNDDKNEMIVKFFFSTRFFKDQLEKLLGTTRPDCLIADMFFPWATEAAGKFNVPRLVFHGTGYFSLCAGYCIGVHKPQKRVASSSEPFVIPELPGNIVITEEQIIDGDGESDMGKFMTEVRESEVKSSGVVLNSFYELEHDYADFYKSCVQKRAWHIGPLSVYNRGFEEKAERGKKANIDEAECLKWLDSKKPNSVIYVSFGSVAFFKNEQLFEIAAGLEASGTSFIWVVRKTKDDREEWLPEGFEERVKGKGMIIRGWAPQVLILDHQATGGFVTHCGWNSLLEGVAAGLPMVTWPVGAEQFYNEKLVTQVLRTGVSVGASKHMKVMMGDFISREKVDKAVREVLAGEAAEERRRRAKKLAAMAKAAVEEGGSSFNDLNSFMEEFSS
- regioselectivity for the 7-OH of daidzein [4]: 100%

B4: GT 73C4: Arabidopsis thaliana glycosyltransferase, SEQ ID NO: 30 (nucleotide), 121 (amino acid) (protein, listed as Arabidopsis thaliana)
chain: MASEKSHKVHPPLHFILFPFMAQGHMIPMIDIARLLAQRGATVTIVTTRYNAGRFENVLSRAMESGLPINIVHVNFPYQEFGLPEGKENIDSYDSMELMVPFFQAVNMLEDPVMKLMEEMKPRPSCIISDLLLPYTSKIARKFSIPKIVFHGTGCFNLLCMHVLRRNLEILKNLKSDKDYFLVPSFPDRVEFTKPQVPVETTASGDWKAFLDEMVEAEYTSYGVIVNTFQELEPAYVKDYTKARAGKVWSIGPVSLCNKAGADKAERGNQAAIDQDECLQWLDSKEDGSVLYVCLGSICNLPLSQLKELGLGLEKSQRSFIWVIRGWEKYNELYEWMMESGFEERIKERGLLIKGWSPQVLILSHPSVGGFLTHCGWNSTLEGITSGIPLITWPLFGDQFCNQKLVVQVLKAGVSAGVEEVMKWGEEEKIGVLVDKEGVKKAVEELMGASDDAKERRRRVKELGESAHKAVEEGGSSHSNITYLLQDIMQQVKSKN
- daidzein glucosides formed / positions glycosylated ([4]; whole-cell biocatalysis, 500 µM aglycone, 44 h, 25° C.): produced the diglucoside in addition to the monoglucosides
